Data taken from publication PMC3973317, “Solution structure and tandem DNA recognition of the C-terminal effector domain of PmrA from Klebsiella pneumoniae”.

What was measured:
[1] = target: T1, PmrAC (C-terminal effector/DNA-binding domain of PmrA) (Klebsiella pneumoniae, UniProt W9BNR5 121-223); assay: NMR PRE; Mn2+ or Ca2+; 1:1; label does not affect interaction; 20 mM sodium phosphate, 30 mM NaCl, pH 6.0; FP with 12 nM 6-FAM DNA (temperature not stated); ITC plus 0.5 mM EDTA at 25 C; NMR at 298 K; conditions: protein: recombinant; tags: N-terminal extra Met; chain copies: 2; label: EDTA spin label (Mn2+/Ca2+); blunt
T1 sequence: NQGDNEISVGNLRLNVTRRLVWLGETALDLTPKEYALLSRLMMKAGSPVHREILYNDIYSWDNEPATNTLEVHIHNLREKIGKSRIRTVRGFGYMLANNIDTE

[2] = target: T1, PmrAC (C-terminal effector/DNA-binding …); assay: fluorescence polarization; 20 mM sodium phosphate, 30 mM NaCl, pH 6.0; FP with 12 nM 6-FAM DNA (temperature not stated); ITC plus 0.5 mM EDTA at 25 C; NMR at 298 K; conditions: protein: recombinant; tags: N-terminal extra Met; chain copies: 2; label: 5' 6-FAM (fluorescence polarization); none (NMR); blunt
[3] = target: T1, PmrAC (C-terminal effector/DNA-binding …); assay: ITC; 1:1 stoichiometry; 0.5 mM EDTA; 20 mM sodium phosphate, 30 mM NaCl, pH 6.0; FP with 12 nM 6-FAM DNA (temperature not stated); ITC plus 0.5 mM EDTA at 25 C; NMR at 298 K; conditions: protein: recombinant; tags: N-terminal extra Met; chain copies: 2; blunt
[4] = target: T1, PmrAC (C-terminal effector/DNA-binding …); assay: NMR titration; range over residues; 20 mM sodium phosphate, 30 mM NaCl, pH 6.0; FP with 12 nM 6-FAM DNA (temperature not stated); ITC plus 0.5 mM EDTA at 25 C; NMR at 298 K; conditions: protein: recombinant; tags: N-terminal extra Met; chain copies: 2; blunt
[5] = target: T1, PmrAC (C-terminal effector/DNA-binding …); assay: NMR PRE; Mn2+ or Ca2+; 2:1 protein:DNA; label does not affect interaction; 20 mM sodium phosphate, 30 mM NaCl, pH 6.0; FP with 12 nM 6-FAM DNA (temperature not stated); ITC plus 0.5 mM EDTA at 25 C; NMR at 298 K; conditions: protein: recombinant; tags: N-terminal extra Met; chain copies: 2; label: EDTA spin label (Mn2+/Ca2+); blunt
[6] = target: T1, PmrAC (C-terminal effector/DNA-binding …); assay: fluorescence polarization; two-site fit, first site (half1); 20 mM sodium phosphate, 30 mM NaCl, pH 6.0; FP with 12 nM 6-FAM DNA (temperature not stated); ITC plus 0.5 mM EDTA at 25 C; NMR at 298 K; conditions: protein: recombinant; tags: N-terminal extra Met; chain copies: 2; label: 5' 6-FAM (fluorescence polarization); none (NMR); blunt
[7] = target: T1, PmrAC (C-terminal effector/DNA-binding …); assay: ITC; 2:1 protein:DNA; one-site fit; 0.5 mM EDTA; 20 mM sodium phosphate, 30 mM NaCl, pH 6.0; FP with 12 nM 6-FAM DNA (temperature not stated); ITC plus 0.5 mM EDTA at 25 C; NMR at 298 K; conditions: protein: recombinant; tags: N-terminal extra Met; chain copies: 2; blunt

B1: box1 dT-EDTA at THY4 (dsDNA)
DNA 1: ATTTCTTAATATTATCCTAAGCAAG
DNA 2: CTTGCTTAGGATAATATTAAGAAAT
modifications: dT-EDTA at T4 of strand 1
Q: Does B1 bind [1]?
A: Result: binds

B2: box1b (dsDNA)
DNA 1: ATTATCCTAAGCAAGG
DNA 2: CCTTGCTTAGGATAAT
Q: B2 was tested. Which Kd [2] did it give?
A: The Kd was 9.3 ± 1.5 µM.

B3: box1a (dsDNA)
DNA 1: AATTTCTTAATATTAT
DNA 2: ATAATATTAAGAAATT
Q: B3 was tested. Which Kd [2] did it give?
A: The Kd was 0.13 ± 0.01 µM.

B4: box2b (dsDNA)
DNA 1: CGTTTAAGTCCG
DNA 2: CGGACTTAAACG
Q: Which Kd [3] does the source give for B4 here?
A: Its Kd is 36.5 ± 9.4 µM.

Q: What about the Kd [4] of the same binder?
A: The Kd was 31.9 µM.

B5: box1 dT-EDTA at THY28 (dsDNA)
DNA 1: ATTTCTTAATATTATCCTAAGCAAG
DNA 2: CTTGCTTAGGATAATATTAAGAAAT
modifications: dT-EDTA at THY28 (strand 2, position 3)
Q: Does B5 bind [5]?
A: Result: binds

B6: box1 (dsDNA)
DNA 1: ATTTCTTAATATTATCCTAAGCAAG
DNA 2: CTTGCTTAGGATAATATTAAGAAAT
Q: For B6, which Kd [6] is on record?
A: The Kd was 0.19 ± 0.01 µM.

B7: box2 (dsDNA)
DNA 1: TCATTTTAATTTCGTTTAAGTCCG
DNA 2: CGGACTTAAACGAAATTAAAATGA
Q: For B7, which Kd [7] is on record?
A: Its Kd is 0.97 ± 0.13 µM.
